The results in this text go back to paper PMC6677129.

The target of this assay is repeat domain (RPT) of Pmel17 (human) (UniProt P40967). Description: co-sedimentation.

The substance “repeat domain (RPT) of Pmel17 (from UniProt P40967 315-444) (domain or fragment)” came in with a percent of RPT left in the supernatant, 0.1 mM LPG of 54%; a percent of RPT left in the supernatant, 0.5 mM LPG of 16%; a percent of protein in the supernatant, 0 mM LPG of 108%; a percent of protein in the supernatant, 10 mM LPG of 92%.
